Key:
[1] = biological target: α-synuclein-YFP fusion protein (recombinant) (UniProt P37840); assay: FRET or BRET
[2] = biological target: α-synuclein-YFP transgene product in C. elegans (UniProt P37840); assay: FRET or BRET

Work on “α-synuclein-YFP fusion protein (recombinant) (from UniProt P37840 1-140) (natural protein)” yielded a mean YFP fluorescence lifetime in cells, day 4 [1] of 1480 ps and a mean YFP fluorescence lifetime, day 4 (oligomeric species) [1] of 2960 ps.

With “α-synuclein-YFP transgene product in C. elegans (from UniProt P37840 1-140) (natural protein)” the decrease of mean YFP fluorescence lifetime during ageing [2] was 130 ps.
